Measured values from US20090241202A1 (MICROMET, published 2009).

Molecular target: T1, human EpCAM on Kato III gastric carcinoma cells (human, UniProt P16422 24-314)
T1 sequence (looked up): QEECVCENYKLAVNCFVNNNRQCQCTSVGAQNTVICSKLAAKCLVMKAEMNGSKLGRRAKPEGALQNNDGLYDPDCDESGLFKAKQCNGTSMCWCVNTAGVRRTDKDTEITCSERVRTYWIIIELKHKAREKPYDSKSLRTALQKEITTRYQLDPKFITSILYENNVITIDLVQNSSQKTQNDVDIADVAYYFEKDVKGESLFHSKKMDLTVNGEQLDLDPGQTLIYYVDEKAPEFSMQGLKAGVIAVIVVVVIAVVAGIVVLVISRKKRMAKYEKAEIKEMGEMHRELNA
Assay: cell-based or functional assay

B1: domain-grafted Anti-EpCAM (antibody, mouse IgG2a, kappa, V domains shown)
VH: EVQLLESGGGVVQPGRSLRLSCAASGFTFSSYGMHWVRQAPGKGLEWVAVISYDGSNKYYADSVKGRFTISRDNSKNTLYLQMNSLRAEDTAVYYCAKDMGWGSGWRPYYYYGMDVWGQGTTVTVSS
VL: ELQMTQSPSSLSASVGDRVTITCRTSQSISSYLNWYQQKPGQPPKLLIYWASTRESGVPDRFSGSGSGTDFTLTISSLQPEDSATYYCQQSYDIPYTFGQGTKLEIKR
EC50 of ADCC (lysis of Kato III target cells), unstimulated human PBMC as effector cells, E:T 20:1: 2110 ng/mL
potency of ADCC against Anti-EpCAM, prestimulated murine NK cells as effector cells: 43.7 fold
